The record followed here is paper PMC10711433, “The forkhead DNA-binding domain binds specific G2-rich RNA sequences”.

Data set [1] deals with T1, FOXL2 (Homo sapiens, UniProt P58012 1-376).
T1 sequence: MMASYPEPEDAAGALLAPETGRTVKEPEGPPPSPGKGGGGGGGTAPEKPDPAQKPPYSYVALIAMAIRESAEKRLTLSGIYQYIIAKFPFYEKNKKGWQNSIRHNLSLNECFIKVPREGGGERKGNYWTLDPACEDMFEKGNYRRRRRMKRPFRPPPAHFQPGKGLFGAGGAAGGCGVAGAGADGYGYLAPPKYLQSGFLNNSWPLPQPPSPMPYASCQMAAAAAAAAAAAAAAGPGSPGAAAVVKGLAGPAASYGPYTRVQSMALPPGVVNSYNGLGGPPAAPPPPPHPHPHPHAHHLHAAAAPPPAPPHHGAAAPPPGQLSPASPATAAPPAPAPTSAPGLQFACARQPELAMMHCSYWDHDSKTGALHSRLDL
Put plainly: pulldown; 37 C; 10 mM HEPES, 140 mM KCl, 25 mM NaCl, 1 mM MgCl2, 0.1 mM CaCl2; equimolar mix, tRNA. As to conditions: tags: His-SUMO, cleaved.

Data set [2] concerns the target T2, FOXL2 C134W (Homo sapiens, UniProt P58012 1-376, C134W).
T2 sequence: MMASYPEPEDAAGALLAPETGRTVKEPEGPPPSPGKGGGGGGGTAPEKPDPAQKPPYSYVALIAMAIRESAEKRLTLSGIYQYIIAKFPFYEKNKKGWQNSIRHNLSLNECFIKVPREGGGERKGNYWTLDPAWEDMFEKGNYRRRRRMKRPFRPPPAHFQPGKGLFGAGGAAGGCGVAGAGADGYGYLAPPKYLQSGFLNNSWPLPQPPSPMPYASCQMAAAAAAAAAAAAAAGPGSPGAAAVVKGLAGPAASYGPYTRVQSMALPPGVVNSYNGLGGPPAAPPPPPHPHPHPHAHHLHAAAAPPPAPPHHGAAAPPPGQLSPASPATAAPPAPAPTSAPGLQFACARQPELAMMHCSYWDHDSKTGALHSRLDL
The description is as above. To be noted: tags: His-SUMO, cleaved.

In data set [3] the target is T3, FOXL2 wt (recombinant) (UniProt P58012 1-376).
T3 sequence: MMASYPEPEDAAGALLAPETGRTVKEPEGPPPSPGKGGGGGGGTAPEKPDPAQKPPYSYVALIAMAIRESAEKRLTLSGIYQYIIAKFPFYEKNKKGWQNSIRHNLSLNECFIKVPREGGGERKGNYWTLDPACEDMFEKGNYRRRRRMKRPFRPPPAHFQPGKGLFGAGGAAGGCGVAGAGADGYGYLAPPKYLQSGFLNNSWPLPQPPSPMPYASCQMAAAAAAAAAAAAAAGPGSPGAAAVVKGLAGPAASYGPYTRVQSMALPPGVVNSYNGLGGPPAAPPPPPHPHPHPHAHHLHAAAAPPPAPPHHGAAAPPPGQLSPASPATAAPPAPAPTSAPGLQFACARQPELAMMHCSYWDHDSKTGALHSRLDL
The data set is described as follows: pull-down competition + HTS; 140 mM LiCl, no K+/Na+; 10 mM HEPES (pH 7.5), 140 mM KCl, 25 mM NaCl, 1 mM MgCl2, 0.1 mM CaCl2, 0.001% IGEPAL, 100 nM yeast tRNA, 50 nM total aptamers, 37 C, 30 min; Li+ variant: 140 mM LiCl replaces KCl/NaCl. As to conditions: protein: recombinant; tags: His-SUMO tag cleaved; putative two-tier intramolecular G4.

Data set [4] addresses T4, FOXL2 C134W (mutFOXL2) (UniProt P58012 1-376, C134W).
T4 sequence: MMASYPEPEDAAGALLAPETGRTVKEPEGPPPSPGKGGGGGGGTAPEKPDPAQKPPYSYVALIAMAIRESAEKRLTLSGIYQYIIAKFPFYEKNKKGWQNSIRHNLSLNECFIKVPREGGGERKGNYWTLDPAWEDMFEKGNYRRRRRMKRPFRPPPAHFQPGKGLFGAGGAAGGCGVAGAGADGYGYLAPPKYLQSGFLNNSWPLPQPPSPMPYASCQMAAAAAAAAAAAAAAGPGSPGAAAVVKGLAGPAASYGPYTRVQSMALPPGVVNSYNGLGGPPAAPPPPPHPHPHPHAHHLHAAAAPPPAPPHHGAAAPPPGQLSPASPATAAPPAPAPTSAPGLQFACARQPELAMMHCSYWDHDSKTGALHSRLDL
Put plainly: pull-down competition + HTS; K+/Na+ buffer, tRNA competitor; 10 mM HEPES (pH 7.5), 140 mM KCl, 25 mM NaCl, 1 mM MgCl2, 0.1 mM CaCl2, 0.001% IGEPAL, 100 nM yeast tRNA, 50 nM total aptamers, 37 C, 30 min; Li+ variant: 140 mM LiCl replaces KCl/NaCl. As to conditions: protein: recombinant; tags: His-SUMO tag cleaved; putative two-tier intramolecular G4.

Data set [5] has as its target T3, FOXL2 wt (recombinant). Put plainly: pull-down competition + HTS; K+/Na+ buffer; basically absent; 10 mM HEPES (pH 7.5), 140 mM KCl, 25 mM NaCl, 1 mM MgCl2, 0.1 mM CaCl2, 0.001% IGEPAL, 100 nM yeast tRNA, 50 nM total aptamers, 37 C, 30 min; Li+ variant: 140 mM LiCl replaces KCl/NaCl. To be noted: protein: recombinant; tags: His-SUMO tag cleaved; unable to fold into G4.

For data set [6], the target named is T4, FOXL2 C134W (mutFOXL2). Described as above. To be noted: protein: recombinant; tags: His-SUMO tag cleaved; unable to fold into G4.
Data set [7] has as its target T3, FOXL2 wt (recombinant). The data set is described as follows: pull-down competition + HTS; K+/Na+ buffer, tRNA competitor; 10 mM HEPES (pH 7.5), 140 mM KCl, 25 mM NaCl, 1 mM MgCl2, 0.1 mM CaCl2, 0.001% IGEPAL, 100 nM yeast tRNA, 50 nM total aptamers, 37 C, 30 min; Li+ variant: 140 mM LiCl replaces KCl/NaCl. To be noted: protein: recombinant; tags: His-SUMO tag cleaved; putative two-tier intramolecular G4.

Data set [8] deals with T3, FOXL2 wt (recombinant). The data set is described as follows: pull-down competition + HTS; mixed with mutRF001; 10 mM HEPES (pH 7.5), 140 mM KCl, 25 mM NaCl, 1 mM MgCl2, 0.1 mM CaCl2, 0.001% IGEPAL, 100 nM yeast tRNA, 50 nM total aptamers, 37 C, 30 min; Li+ variant: 140 mM LiCl replaces KCl/NaCl. To be noted: protein: recombinant; tags: His-SUMO tag cleaved; putative two-tier intramolecular G4.

In data set [9] the target is T3, FOXL2 wt (recombinant). The data set is described as follows: pull-down competition + HTS; mixed with RF000/RF002 DNA and scr50 RNA; 10 mM HEPES (pH 7.5), 140 mM KCl, 25 mM NaCl, 1 mM MgCl2, 0.1 mM CaCl2, 0.001% IGEPAL, 100 nM yeast tRNA, 50 nM total aptamers, 37 C, 30 min; Li+ variant: 140 mM LiCl replaces KCl/NaCl. To be noted: protein: recombinant; tags: His-SUMO tag cleaved; putative two-tier intramolecular G4.

B1: RF001 DNA (ssDNA)
DNA: GGGAGAGTATCCGTTGAGGCTGACGTCATTTGGTGGATGGCGGAAGGAGGCGGAGGACGGGAAATTCTGGAAAAGATCGGAAGAGCGTCGTGTAGG
As for B1, the binding result in data set [1] is “no binding”.

B2: mutRF001 (ssRNA)
RNA: GGGAGAGUAUCCGUUGAGGCUGACGUCAUUUGAGUGAGUGAGCGAGAGAGAGUGCGUGAGAGACGAGAGCGUGAGAUCGGAAGAGCGUCGUGUAGG
As to B2, the binding result in data set [1] was “no binding”.

B3: RF002 DNA (ssDNA)
DNA: GGGAGAGTATCCGTTGAGGCTGATCGGACTTTGGTGGTTGGAGGACGGATGGACGGAGGTTTATTAGGCTCGCAGATCGGAAGAGCGTCGTGTAGG
Regarding B3, the binding result in [1] is recorded as “no binding”.

B4: RF000 DNA (ssDNA)
DNA: GGGAGAGTATCCGTTGAGGCTGAGAGGTATTAAGAGGCGGAGGCGGAAGGATGGCGGAGGACCGACAGAGAAGAGATCGGAAGAGCGTCGTGTAGG
For the molecule B4, in data set [1], the binding result is reported as “no binding”.

B5: RF001 (ssRNA)
RNA: GGGAGAGUAUCCGUUGAGGCUGACGUCAUUUGGUGGAUGGCGGAAGGAGGCGGAGGACGGGAAAUUCUGGAAAAGAUCGGAAGAGCGUCGUGUAGG
For B5, the binding result in data set [1] and in data set [2] was “binds” throughout.

B6: RF002 RNA (structured_RNA)
RNA: UCGGACUUUGGUGGUUGGAGGACGGAUGGACGGAGGUUUAUUAGGCUCGC
As for B6, the binding result in data set [3] and in [4] was “binds” throughout.

B7: RF000 (ssRNA)
RNA: GGGAGAGUAUCCGUUGAGGCUGAGAGGUAUUAAGAGGCGGAGGCGGAAGGAUGGCGGAGGACCGACAGAGAAGAGAUCGGAAGAGCGUCGUGUAGG
On to B7, for which the binding result in data set [1] and in [2] was “binds” throughout.

B8: scr50 RNA (ssRNA)
RNA: GGGACACUCGCUGUUUUCGAAAUUACCCUUUAUGCGCGGGUAUUGAACCA
For the molecule B8, the binding result in [5] and in [6] was “no binding” in each case.

B9: RF000 RNA (structured_RNA)
RNA: GAGGUAUUAAGAGGCGGAGGCGGAAGGAUGGCGGAGGACCGACAGAGAAG
With B9, the binding result in [7] and in data set [4] was “binds” each time.

B10: RF004 DNA (ssDNA)
DNA: GGGAGAGTATCCGTTGAGGCTGAATCTGCGACTGGCTGGAGGTGGACGGATGGCTGGAGGCGAAATTGGCTTAAGATCGGAAGAGCGTCGTGTAGG
In the case of B10, in [1], the binding result is listed as “no binding”.

B11: scr50 (ssRNA)
RNA: GGGAGAGUAUCCGUUGAGGCUGAGGGACACUCGCUGUUUUCGAAAUUACCCUUUAUGCGCGGGUAUUGAACCAAGAUCGGAAGAGCGUCGUGUAGG
Take B11: the binding result in data set [1] and in [2] was “no binding” throughout.

B12: RF001 RNA (structured_RNA)
RNA: CGUCAUUUGGUGGAUGGCGGAAGGAGGCGGAGGACGGGAAAUUCUGGAAA
As to B12, in [8], the binding signal is > 10 fold enrichment RF001/mutRF001 vs no-protein control. Besides, the binding result in data set [4] is listed as “binds”.

B13: RF004 RNA (structured_RNA)
RNA: AUCUGCGACUGGCUGGAGGUGGACGGAUGGCUGGAGGCGAAAUUGGCUUA
Turning to B13, the binding result in data set [4] and in [9] was “binds” throughout.

B14: RF002 (ssRNA)
RNA: GGGAGAGUAUCCGUUGAGGCUGAUCGGACUUUGGUGGUUGGAGGACGGAUGGACGGAGGUUUAUUAGGCUCGCAGAUCGGAAGAGCGUCGUGUAGG
For B14, the binding result in data set [1] and in data set [2] was “binds” in each case.

B15: RF004 (ssRNA)
RNA: GGGAGAGUAUCCGUUGAGGCUGAAUCUGCGACUGGCUGGAGGUGGACGGAUGGCUGGAGGCGAAAUUGGCUUAAGAUCGGAAGAGCGUCGUGUAGG
Consider B15, for which the binding result in data set [1] and in [2] was “binds” each time.
